3 molecules from patent CN113512113A (THE FIRST AFFILIATED HOSPITAL COLLEGE OF MEDICINE ZHEJIANG …, dated 2021) can be followed below.

B1: SW-B1 (antibody, V domains shown)
VH: QVQLVQSGAEVKKPGASVKVSCTASGDTFTTYYMNWMRQAPGQGLEWMGIINPSGGSTSYAQKFQGRVTMTRDTSRSTVYMELSSLRSEDTAVYYCATPSLEEAEGGPQLAFDIWGQGTMVTVSS
VL: not shown
B2: CZ-D7 (antibody, V domains shown)
VH: QVQLVQSGAEVKTPGSSVKVSCKASGGSFSNYAISWVRQAPGQGLEWMGRIIATLGISNYAQKFQGRVTMTADKSTSTAYMELSSLRSEDTAVYYCASPITNFGVLIEVDAFHIWGQGTMVTVSS
VL: EIVLTQSPFTLSLSPGERATLSCGASQSVSSSYLAWYQQKPGLAPRLLIYDGSSRATDIPDRFSGSGSGTDFTLTISRLEPEDFAMYYCQQYSTSPLTFGGGTKVEIKR
B3: SW-A9 (antibody, V domains shown)
VH: QMQLVQSGPEVKKPGTSVKVSCKASGFTFTNSAMQWVRQARGQRLEWVGWIVVASGNANSARRFHDRVTITSDMSTSTAYLELSSLRSEDTAVYYCALNHCSNTTCLDGFDIWGQGTMVSVSS
VL: EIVLTQSPVTLSLSPGERATLSCRASQSVRNSLLAWYQQKPGQAPRLLIYAASSRATGIPDRFSGSGSGTDFTLTISRLEPEDFVVYYCQQHGSSPPWTFGQGTKVEFKR

This assay has as its target SARS-Cov-2的生物素化RBD(NC_045512) (SARS-CoV-2, UniProt P0DTC2 319-541).
On to B1, for which binding was put at a Kd of 0.0943 nM. On to B2, for which the Kd (commonly the concentration at which binding is half-saturated) is less than 0.001 nM. Next, B3: less than 0.001 nM.
